Here are results for eight molecules from patent US20050282743A1, “Molecular interactions in cells” (Arbor Vita Corporation, priority 2001, published 2005).

Common to all, as to experiment: G' assay
Experiment [1] concerns the target GST-BAI-1 Associated Protein PDZ domain 6 (Homo sapiens (Human)), Q96QZ7.
The target in experiment [2] is T1, GST-FLJ 10324 PDZ domain 1 [GST: P08515].
T1 chain: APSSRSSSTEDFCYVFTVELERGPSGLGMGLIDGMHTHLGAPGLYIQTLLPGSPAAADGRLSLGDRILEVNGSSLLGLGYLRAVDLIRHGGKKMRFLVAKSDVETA

Experiment [3] addresses T2, GST-HEMBA 1003117 PDZ domain 1 (Homo sapiens (Human)), Q96JH8.
T2 chain: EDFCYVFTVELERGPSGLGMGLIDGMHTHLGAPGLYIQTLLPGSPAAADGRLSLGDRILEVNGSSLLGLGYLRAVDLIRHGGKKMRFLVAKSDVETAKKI

Experiment [4] addresses T3, GST-INADL PDZ domain 3 (Homo sapiens (Human)), Q8NI35.
T3 chain: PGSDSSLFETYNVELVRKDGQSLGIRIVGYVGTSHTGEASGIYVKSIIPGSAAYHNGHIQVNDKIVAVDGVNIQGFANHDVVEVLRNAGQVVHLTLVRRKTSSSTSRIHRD

Experiment [5] concerns the target T4, GST-KIAA0807(S) PDZ domain 1 (Homo sapiens (Human)), Q6P0Q8.
T4 chain: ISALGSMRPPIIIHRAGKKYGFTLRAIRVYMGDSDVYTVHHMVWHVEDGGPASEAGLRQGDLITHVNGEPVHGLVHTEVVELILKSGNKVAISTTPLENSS

The target of experiment [6] is T5, GST-KIAA1526 PDZ domain 1 (Homo sapiens (Human)), Q9P202.
T5 chain: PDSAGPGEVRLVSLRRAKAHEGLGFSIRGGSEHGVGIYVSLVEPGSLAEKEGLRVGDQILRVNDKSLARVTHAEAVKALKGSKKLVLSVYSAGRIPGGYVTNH

Experiment [7] addresses T6, GST-LIM Mystique PDZ domain 1 (Homo sapiens (Human)), Q96JY6.
T6 chain: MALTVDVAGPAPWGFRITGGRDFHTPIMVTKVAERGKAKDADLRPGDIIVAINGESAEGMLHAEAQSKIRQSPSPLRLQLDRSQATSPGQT

The target of experiment [8] is GST-PAR3 PDZ domain 3 (Homo sapiens (Human)), Q8TEW0.
GST-PAR3 PDZ domain 3 (Homo sapiens (Human)), Q8TEW0, sequence (Q8TEW0 579-681): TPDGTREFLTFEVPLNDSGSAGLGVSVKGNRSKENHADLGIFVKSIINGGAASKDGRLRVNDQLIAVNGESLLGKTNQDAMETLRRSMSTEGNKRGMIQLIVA
Experiment [9] addresses T7, GST-PTPL1 PDZ domain 2 (Homo sapiens (Human)), Q12923.
T7 chain: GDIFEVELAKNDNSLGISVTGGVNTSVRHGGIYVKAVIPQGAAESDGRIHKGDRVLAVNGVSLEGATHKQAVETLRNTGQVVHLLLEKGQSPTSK

In experiment [10] the target is T8, GST-Syntrophin gamma 1 PDZ domain 1 (Homo sapiens (Human)), Q9NSN8.
T8 chain: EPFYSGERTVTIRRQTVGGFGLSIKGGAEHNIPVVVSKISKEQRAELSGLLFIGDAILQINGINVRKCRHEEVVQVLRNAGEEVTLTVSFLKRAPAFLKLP

In experiment [11] the target is GST-BAI-1 Associated Protein PDZ domain 2 (Mus musculus (Mouse)), Q6RHR9.
GST-BAI-1 Associated Protein PDZ domain 2 (Mus musculus (Mouse)), Q6RHR9, sequence (Q6RHR9 455-558): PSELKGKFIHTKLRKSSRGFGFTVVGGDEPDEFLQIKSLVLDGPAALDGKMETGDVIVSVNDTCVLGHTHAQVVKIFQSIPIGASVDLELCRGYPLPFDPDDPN
Experiment [12] deals with T9, GST-FLJ00011 PDZ domain 1 (Homo sapiens (Human)), Q9H5P4.
T9 chain: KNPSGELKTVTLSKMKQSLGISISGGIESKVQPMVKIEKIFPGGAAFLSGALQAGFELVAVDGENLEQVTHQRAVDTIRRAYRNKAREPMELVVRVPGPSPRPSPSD

The target in experiment [13] is T10, GST-KIAA0382 PDZ domain 1 (Canis lupus familiaris (Dog) (Canis familiaris)), A0A8I3.
T10 chain: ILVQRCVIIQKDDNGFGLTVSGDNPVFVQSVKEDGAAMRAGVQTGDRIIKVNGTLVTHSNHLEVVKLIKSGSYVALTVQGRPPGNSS

The target in experiment [14] is GST-KIAA807 [GST: P08515].
GST-KIAA807 [GST: P08515], sequence (P08515 whole entry, the tested form may be a part): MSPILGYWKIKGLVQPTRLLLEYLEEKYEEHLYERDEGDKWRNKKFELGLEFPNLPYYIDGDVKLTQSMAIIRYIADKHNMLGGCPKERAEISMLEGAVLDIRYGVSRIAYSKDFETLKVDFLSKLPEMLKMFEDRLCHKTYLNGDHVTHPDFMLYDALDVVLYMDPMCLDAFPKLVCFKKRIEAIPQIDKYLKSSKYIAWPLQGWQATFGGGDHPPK
Experiment [15] deals with T11, GST-MINT1 PDZ domain 2 (Mus musculus (Mouse)), B2RUJ5.
T11 chain: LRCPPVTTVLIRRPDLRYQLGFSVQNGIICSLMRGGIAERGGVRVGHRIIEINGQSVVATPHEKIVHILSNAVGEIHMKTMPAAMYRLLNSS

Experiment [16] has as its target T12, GST-MINT1 PDZ domains 1, 2, Q02410.
T12 chain: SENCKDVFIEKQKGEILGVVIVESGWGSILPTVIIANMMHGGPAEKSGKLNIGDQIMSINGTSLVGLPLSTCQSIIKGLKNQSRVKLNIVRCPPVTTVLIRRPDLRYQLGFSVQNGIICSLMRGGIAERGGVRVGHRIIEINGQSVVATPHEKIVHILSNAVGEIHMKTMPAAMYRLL

In experiment [17] the target is T13, GST-TIP1 PDZ domain 1 (Table 9 insert) (Homo sapiens (Human)), O14907.
T13 chain: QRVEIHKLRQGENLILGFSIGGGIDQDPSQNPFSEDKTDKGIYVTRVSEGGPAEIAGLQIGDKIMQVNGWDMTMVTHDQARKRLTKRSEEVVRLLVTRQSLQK

Experiment [18] concerns the target GST-Atrophin-1 Interacting Protein PDZ domain 3 (Rattus norvegicus (Rat)), O88382.
The target of experiment [19] is GST-KIAA1634 PDZ domain 5 (Homo sapiens (Human)), Q5TCQ9.
GST-KIAA1634 PDZ domain 5 (Homo sapiens (Human)), Q5TCQ9, sequence (Q5TCQ9 other isoform, or with tags, fused parts or gaps): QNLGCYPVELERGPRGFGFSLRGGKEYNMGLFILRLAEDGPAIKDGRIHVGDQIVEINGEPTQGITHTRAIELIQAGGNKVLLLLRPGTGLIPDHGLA
The target of experiment [20] is T14, GST-LIM-RIL PDZ domain 1 (Homo sapiens (Human)), P50479.
T14 chain: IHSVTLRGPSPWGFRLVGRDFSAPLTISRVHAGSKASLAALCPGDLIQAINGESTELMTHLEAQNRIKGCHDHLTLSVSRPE

The target of experiment [21] is T15, GST-Outer Membrane PDZ domain 1 (Homo sapiens (Human)), P57105.
T15 chain: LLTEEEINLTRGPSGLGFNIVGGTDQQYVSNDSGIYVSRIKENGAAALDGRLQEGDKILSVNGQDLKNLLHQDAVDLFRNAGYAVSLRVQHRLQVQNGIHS
Also: key of the grades not given here.

GST-Atrophin-1 Interacting Protein PDZ domain 3 (Rattus norvegicus (Rat)), O88382, sequence (O88382 774-865, tags or fused parts left off): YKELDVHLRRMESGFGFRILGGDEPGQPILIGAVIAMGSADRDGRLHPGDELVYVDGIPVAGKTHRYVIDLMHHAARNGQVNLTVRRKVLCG
GST-BAI-1 Associated Protein PDZ domain 6 (Homo sapiens (Human)), Q96QZ7, sequence (Q96QZ7 1143-1233): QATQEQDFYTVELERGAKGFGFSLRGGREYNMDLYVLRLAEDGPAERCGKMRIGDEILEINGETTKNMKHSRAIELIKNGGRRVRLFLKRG

For the molecule HDFRRAFKKILARGDRKRIV (modifications not checked) [alpha-2A Adrenergic receptor], the Classification is 3 A450 class in experiment [1]; 1 A450 class in experiment [2]; 1 A450 class in experiment [3]; 2 A450 class in experiment [4]; 1 A450 class in experiment [5]; 4 A450 class in experiment [6]. Besides, the Classification in experiment [7] is 1 A450 class; in experiment [8], 2 A450 class; in experiment [9] it was 2 A450 class; in experiment [10], 2 A450 class.

AWDDSARAAGGQGLHVTAL (modifications not checked) [LPAP]: the Classification in experiment [11] was determined as 2 A450 class; in experiment [2], 1 A450 class; in experiment [12], 4 A450 class; in experiment [3], 1 A450 class; in [13], 5 A450 class; in experiment [5] it was 5 A450 class. The Classification in [6] amounted to 1 A450 class; in experiment [14], 5 A450 class; in [15], 1 A450 class; in [16], 1 A450 class; in [9], 1 A450 class; in [17], 5 A450 class.

On to ELLQFCRTPNPALKNGQYWV (modifications not checked) [CSPG4 (chondroitin sulfae proteoglycan 4, melanoma-associated)], for which the Classification in experiment [18] came to 2 A450 class; in experiment [11] it was 2 A450 class; in experiment [1] it was 4 A450 class; in [2], 5 A450 class; in [3], 5 A450 class; in experiment [4], 3 A450 class. The Classification in experiment [5] was found to be 1 A450 class; in [19], 2 A450 class; in experiment [14] it was 1 A450 class; in experiment [7] it was 2 A450 class; in experiment [20], 2 A450 class; in [15], 5 A450 class. Moreover, the Classification in experiment [16] was 5 A450 class; in [21], 1 A450 class; in [8] it was 3 A450 class; in experiment [17] it was 1 A450 class.

With KTMPAAMYRLLTAQEQPVYI (modifications not checked) [MINT-1], the Classification is 5 A450 class in experiment [2]; 3 A450 class in experiment [3]; 1 A450 class in experiment [13]; 5 A450 class in experiment [5]; 4 A450 class in [14]; 5 A450 class in experiment [16]. In experiment [8], this molecule displayed a Classification of 5 A450 class.

With PYSELNYETSHYPASPDSWV (modifications not checked) [catenin - delta 2], the Classification in experiment [18] worked out at 1 A450 class; in [2], 3 A450 class; in experiment [3] it was 1 A450 class; in experiment [5] it was 3 A450 class; in experiment [6], 2 A450 class; in experiment [19] it was 3 A450 class. Besides, the Classification in [14] turned out to be 4 A450 class; in [7] it was 5 A450 class; in experiment [20], 2 A450 class; in experiment [15], 3 A450 class; in [16], 5 A450 class; in [21] it was 5 A450 class. Moreover, the Classification in experiment [8] stood at 1 A450 class; in experiment [9], 5 A450 class; in experiment [10] it was 1 A450 class; in experiment [17], 3 A450 class.

On to VGTLLLERVIFPSVKIATLV (modifications not checked) [AdenoE4 typ9], for which the Classification in experiment [18] is 4 A450 class; in experiment [11], 5 A450 class; in [1], 1 A450 class; in [2], 3 A450 class; in experiment [12], 1 A450 class; in experiment [3], 3 A450 class. The Classification amounted to 1 A450 class in [13]; 3 A450 class in experiment [5]; 4 A450 class in experiment [14]; 2 A450 class in experiment [15]; 2 A450 class in experiment [16]; 5 A450 class in [21]. The Classification in [9] turned out to be 3 A450 class.

Regarding PIPAGGCTFSGIFPTLTSPL (modifications not checked) [KIA 1481], the Classification came out at 2 A450 class in experiment [11]; 2 A450 class in experiment [1]; 2 A450 class in experiment [12]; 5 A450 class in experiment [13]; 5 A450 class in experiment [5]; 2 A450 class in experiment [6]. For the same molecule, the Classification in experiment [19] worked out at 1 A450 class; in experiment [14] it was 5 A450 class; in experiment [15], 3 A450 class; in experiment [16], 3 A450 class; in experiment [17], 2 A450 class.

Turning to VPGALDYAAFSSALYGESDL (modifications not checked) [a-actinin 2], the Classification in experiment [11] was determined as 1 A450 class; in experiment [1] it was 5 A450 class; in experiment [4], 1 A450 class; in experiment [5], 5 A450 class; in experiment [6] it was 1 A450 class; in experiment [19], 5 A450 class. In addition, the Classification in experiment [14] was 5 A450 class; in experiment [7] it was 5 A450 class; in experiment [20] it was 5 A450 class; in experiment [15], 1 A450 class; in [16], 1 A450 class; in experiment [21], 1 A450 class. Moreover, the Classification in experiment [8] is 1 A450 class; in [9] it was 1 A450 class; in experiment [10], 1 A450 class; in experiment [17] it was 5 A450 class.
